The values below come from PMC7397465, “Crystal structure of the Rab-binding domain of Rab11 family-interacting protein 2” (Acta Crystallographica. Section F, Structural Biology …, 2020).

This data set deals with the molecule itself. The experiment in a line: crystal structure; vapor diffusion, 298 K; protein 6 mg/ml in 150 mM NaCl, 10 mM Tris-HCl, 1 mM DTT pH 7.5; reservoir 0.01 M cobalt chloride, 0.1 M sodium acetate pH 4.8, 1 M 1,6-hexanediol; 2.3 A; four monomers in the asymmetric unit.

One may read the stoichiometry N as the number of molecules, sites or subunits per partner or assembly.

B1: Rab-binding domain of Rab11 family-interacting protein 2 (domain or fragment, Homo sapiens)
chain: GSHMSNPFDATAGYRSLTYEEVLQELVKHKELLRRKDTHIRELEDYIDNLLVRVMEETPSILRVPYEPSRKAGKFSNS
notes: not FIP2 residues by the stated limits 439-512; Expression vector pNIC-Bsa4 with a TEV protease cleavage site; tag cleaved with TEV before crystallization; In the crystal at least the first seven and the last 15 residues are disordered (monomers seen from 445-451 to 496 or 497); also called FIP2; RBD of FIP2; source: Escherichia coli BL21(DE3), purified (nickel agarose, TEV cleavage, Mono Q, …)
With B1, the “stoichiometry N” value is 4.
